# B1: TGF-β3: TGF-β3 over-expressed from a retroviral/lentiviral vector; cells exposed by transduction or conditioned medium (protein, UniProt P10600 301-412, looked up)
# Transforming growth factor …: ALDTNYCFRNLEENCCVRPLYIDFRQDLGWKWVHEPKGYYANFCSGPCPYLRSADTTHSTVLGLYNTLNPEASASPCCVPQDLEPLTILYYVGRTPKVEQLSNMVVKSCKCS
# Tests used:
# Format in all cases: cell-based
# [1] = tested on: BMP responsive element BRE (Smad1/5/8); test: BMP responsive element BRE luciferase reporter in NIH-3T3 cells (negative control); settings: TGF-β3 over-expression
# Text: (§1) NIH-3T3 cells were transfected with plasmids containing TGF-β responsive elements driving luciferase expression. These cells were then transduced with a retroviral vector expressing TGF-β3. The SBE4 responsive element is specific to TGF-β activation via smad2/3 mediated transcriptional activation. This Smad activation can be further delineated to Smad2 specific transcriptional activation using the ARE responsive element in conjunction with the xenopus Fast-1 transactivator (ARE alone is only Smad2/3 specific). The BMP-specific responsive element activates through Smad1/5/8 activation and should not be responsive to TGF-β3 activity. […] The experiment was conducted as follows:
# (§2) NIH-3T3 cells pre-plated at 1×10^6 cells/well and transfected with 10 μg of reporter plasmid by standard Calcium Phosphate precipitation. After 48 hours cells were transduced with either rKat.TGF-β3 or a control rKat.cmvGFP retrovirus. […] After 48 hours luciferase expression was measured in cell lysates. […] Relative luciferase activity was expressed in arbitrary units with respect to total protein measured by standard Bradford assay as by manufacturer's instructions (BioRad, Herts, UK).
# Smad7 promoter = Smad7 promoter luciferase reporter in NIH-3T3 cells; settings: TGF-β3 over-expression
# Text: as §1, §2
# [2] = tested on: ARE responsive element (Smad2/3 specific); test: ARE responsive element luciferase reporter in NIH-3T3 cells; settings: TGF-β3 over-expression
# Text: as §1, §2
# [3] = tested on: 293T cells transduced with Lenti/CAGA(12)-Luc; test: Lenti/CAGA(12)-Luc reporter in 293T cells with or without human αvβ3 integrins; settings: conditioned medium from cells over-expressing TGF-β3
# Text: Human embryonic kidney 293T cells stably expressing the human αvβ3 integrins and control 293T cells were transduced with the Lenti/CAGA(12)-Luc vector to generate two transgenic lines. Again, these cells were subjected to conditioned medium from cells either over-expressing TGF-β3 or control cells. In more detail:
# Human 293T cells stably transfected with αv and β3 integrin (293Tab) along with 293T controls were a kind gift from Dr. John Olsen, UNC, USA. 293T cells and 293Tabs were transduced with Lenti-CAGA(12)-Luc and human DFs were tranduced with lentivirus either expressing human TGF-β3iresGFP, mutant TGF-β3iresGFP or a GFP control. Cells were cultured for a further 48 hours prior to trypsinisation and mixing of 293 cells and transduced DFs in a 1:1 ratio. Cells were incubated for a further 24 hours in serum containing medium then incubated for 48 hours in serum depleted medium supplemented with ITS+1 (Sigma-Aldrich). Cells were subsequently either FACS analysed, to assess the ratio of 293T cells to DFs, or lysed for the purpose of quantifying the luciferase expression.
# [4] = tested on: SBE4 responsive element (smad2/3 mediated transcriptional activation); test: SBE4 responsive element luciferase reporter in NIH-3T3 cells; settings: transgenic TGF-β3 over-expression vs control GFP retrovirus, 48 hours
# Text: as §1, §2
# [5] = tested on: ARE responsive element with xenopus Fast-1 transactivator (Smad2 specific); test: ARE/Fast-1 responsive element luciferase reporter in NIH-3T3 cells; settings: TGF-β3 over-expression
# Text: as §1, §2
# [6] = tested on: MDF-CAGA(12)-Luc cells (Smad2/3 specific transcriptional activation); test: CAGA(12)-Luc reporter in primary murine dermal fibroblasts; settings: conditioned medium from TGF-β3 over expressing cells vs GFP control
# Procedure: A cell line transgenic for a synthetic TGF-β responsive element driving the firefly luciferase gene was generated from primary mouse dermal fibroblasts. The CAGA(12) Smad Binding Element (SBE) was placed upstream of a minimal promoter and will respond to Smad2/3 specific transcriptional activation. Primary murine dermal fibroblasts (MDF) were transduced with a lentiviral vector containing the CAGA(12)-Luc element. These cells were then incubated in conditioned medium from MDFs transduced with a lentivector expressing either TGF-β3 or GFP. The experiment was carried out as follows:
# Murine dermal fibroblasts (MDF) were isolated as previously described by DiPersio et al. (DiPersio, C. M., S. Shah, and R. O. Hynes. 1995. alpha 3A beta 1 integrin localizes to focal contacts in response to diverse extracellular matrix proteins. J Cell Sci 108 (Pt 6):2321-36) and expanded to ˜60% confluence and transduced with a lentivector expressing a luciferase reporter gene under the control of either a smad 2/3-specific CAGA(12) promoter. Lentiviral preps were generated as described in Example 1. […] Relative luciferase activity was expressed in arbitrary units with respect to total protein measured by standard Bradford assay as by manufacturer's instructions (BioRad, Herts, UK).
molecule,measurement,setting,value
B1,luciferase response of BRE element over controls,[1],did not show a significant response over controls
same,luciferase response of Smad7 promoter over controls,Smad7 promoter,significant responses over controls
same,luciferase response of ARE element over controls,[2],significant responses over controls
same,luciferase output in αvβ3 expressing cell lines compared to control 293T cells,[3],significantly enhanced
same,upregulation of SBE4 element over controls (luciferase),[4],~1000 fold
same,luciferase response of ARE/Fast-1 element over controls,[5],significant responses over controls
same,luciferase response compared to control,[6],significant luciferase response

# Source: patent publication US20100175139A1, “SOMATO[…]” (priority 2007, published 2010)
